The record followed here is publication PMC13477270.

The test deals with miniTRIM37 RING–B-box-2–hcc (human | T. thermophilus) (UniProt O94972). Nature of the test: SEC-MALS. A general note: Size exclusion chromatography separates by hydrodynamic size, large species first.

By stoichiometry N is commonly meant the number of molecules, sites or subunits per partner or assembly. “miniTRIM37 RING–B-box-2–hcc (from UniProt O94972 1-158; O94972 214-254)” had a stoichiometry N of 2.
